Measured values reported in publication PMC12205651, “A 36-base hairpin within lncRNA DRAIC, which is modulated by alternative splicing, interacts with the IKKα coiled-coil domain and inhibits NF-κB and tumor cell phenotypes”.

What was measured:
IKKα-His [1] = target: T1, IKKα-His (UniProt O15111); test: pull-down (in vitro RIP-qPCR); conditions: SPR: 10 mM HEPES pH 7.4, 150 mM NaCl, 3 mM EDTA, 0.05% P20, 25 °C; pull-down: 25 mM HEPES pH 7.5, 150 mM NaCl, 0.05% NP-40, 10% glycerol, RT; EMSA: LightShift …
T1 sequence: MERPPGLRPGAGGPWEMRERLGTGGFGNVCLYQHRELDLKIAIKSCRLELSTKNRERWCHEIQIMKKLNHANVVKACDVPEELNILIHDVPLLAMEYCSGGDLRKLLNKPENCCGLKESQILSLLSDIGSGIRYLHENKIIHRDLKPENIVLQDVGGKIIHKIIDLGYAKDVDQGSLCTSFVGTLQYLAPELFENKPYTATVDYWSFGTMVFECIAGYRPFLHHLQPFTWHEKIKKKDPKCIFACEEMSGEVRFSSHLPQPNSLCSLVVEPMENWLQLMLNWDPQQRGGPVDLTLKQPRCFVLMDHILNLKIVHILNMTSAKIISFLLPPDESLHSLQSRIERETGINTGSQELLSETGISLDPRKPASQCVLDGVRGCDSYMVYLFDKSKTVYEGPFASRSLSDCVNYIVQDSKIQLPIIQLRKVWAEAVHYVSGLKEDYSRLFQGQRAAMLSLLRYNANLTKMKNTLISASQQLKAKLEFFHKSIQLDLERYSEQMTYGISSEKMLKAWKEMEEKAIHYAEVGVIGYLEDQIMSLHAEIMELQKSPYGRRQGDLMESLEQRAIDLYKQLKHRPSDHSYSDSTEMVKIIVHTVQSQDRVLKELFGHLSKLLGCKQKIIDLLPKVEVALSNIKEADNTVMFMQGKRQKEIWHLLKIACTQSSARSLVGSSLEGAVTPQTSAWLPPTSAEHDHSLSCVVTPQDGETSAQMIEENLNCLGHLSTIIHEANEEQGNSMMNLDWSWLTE

IKKα-His [2] = target: T1, IKKα-His; test: SPR; conditions: SPR: 10 mM HEPES pH 7.4, 150 mM NaCl, 3 mM EDTA, 0.05% P20, 25 °C; pull-down: 25 mM HEPES pH 7.5, 150 mM NaCl, 0.05% NP-40, 10% glycerol, RT; EMSA: LightShift …
GST-NEMO = GST-NEMO (UniProt Q9Y6K9 1-419); test: SPR; biotin RNA immobilized; SPR: 10 mM HEPES pH 7.4, 150 mM NaCl, 3 mM EDTA, 0.05% P20, 25 °C; pull-down: 25 mM HEPES pH 7.5, 150 mM NaCl, 0.05% NP-40, 10% glycerol, RT; EMSA: LightShift kit, 22 °C, 25 min; conditions: protein: recombinant; tags: GST; chain copies: 2; label: 5' biotin; hairpin
Chain of GST-NEMO (Q9Y6K9 whole entry): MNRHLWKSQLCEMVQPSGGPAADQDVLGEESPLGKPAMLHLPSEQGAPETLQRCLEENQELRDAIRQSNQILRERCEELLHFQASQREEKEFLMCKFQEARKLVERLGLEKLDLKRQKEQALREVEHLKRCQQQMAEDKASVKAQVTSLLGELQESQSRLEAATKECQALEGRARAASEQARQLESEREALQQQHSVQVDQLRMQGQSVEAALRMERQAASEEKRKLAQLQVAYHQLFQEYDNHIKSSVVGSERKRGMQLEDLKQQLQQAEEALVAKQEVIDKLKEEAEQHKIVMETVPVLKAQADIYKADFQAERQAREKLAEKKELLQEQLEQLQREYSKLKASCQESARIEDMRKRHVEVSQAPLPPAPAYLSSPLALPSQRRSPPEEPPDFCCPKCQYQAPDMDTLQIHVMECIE

MBP-IKKα-6His = target: T2, MBP-IKKα-6His (UniProt O15111 1-745); test: SPR; biotin RNA immobilized on NeutrAvidin chip, protein analyte; text gives 6.09 ± 1.08 nM; SPR: 10 mM HEPES pH 7.4, 150 mM NaCl, 3 mM EDTA, 0.05% P20, 25 °C; pull-down: 25 mM HEPES pH 7.5, 150 mM NaCl, 0.05% NP-40, 10% glycerol, RT; EMSA: LightShift kit, 22 °C, 25 min; conditions: protein: recombinant; tags: N-term MBP (pMAL-c5X), C-term His6; chain copies: 2; label: 5' biotin; hairpin
T2 sequence: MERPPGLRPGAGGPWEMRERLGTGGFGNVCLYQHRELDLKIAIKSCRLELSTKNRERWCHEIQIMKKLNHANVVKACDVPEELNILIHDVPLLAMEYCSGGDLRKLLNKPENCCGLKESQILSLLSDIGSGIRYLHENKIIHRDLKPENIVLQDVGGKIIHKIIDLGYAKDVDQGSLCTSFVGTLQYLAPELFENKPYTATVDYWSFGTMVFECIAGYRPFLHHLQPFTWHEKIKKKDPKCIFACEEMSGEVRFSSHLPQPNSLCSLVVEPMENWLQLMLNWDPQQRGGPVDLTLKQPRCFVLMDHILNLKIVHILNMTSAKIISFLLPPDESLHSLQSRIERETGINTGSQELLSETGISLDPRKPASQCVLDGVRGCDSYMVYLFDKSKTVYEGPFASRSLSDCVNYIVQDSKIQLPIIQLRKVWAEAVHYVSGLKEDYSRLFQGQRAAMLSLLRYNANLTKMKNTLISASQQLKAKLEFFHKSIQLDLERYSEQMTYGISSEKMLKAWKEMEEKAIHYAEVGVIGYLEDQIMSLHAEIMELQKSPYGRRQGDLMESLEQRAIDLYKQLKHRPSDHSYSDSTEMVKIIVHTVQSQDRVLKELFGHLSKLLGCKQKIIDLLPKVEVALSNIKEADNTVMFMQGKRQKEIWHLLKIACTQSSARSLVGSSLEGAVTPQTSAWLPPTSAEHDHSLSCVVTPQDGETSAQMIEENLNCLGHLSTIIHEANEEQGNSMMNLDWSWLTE

“GGGAGAUUGGAAUAACUUGCAGUGUCUUGCAGUAUUGUGAAACCAGCAACUUGUUCACAAUUCUUCUGAAUUUCUUGGGAAAUUUGAAGUGGAGUACCUGUACCAACAUGAAAUGACACGAAUUUAAGUGACGCUCAACAACGAAAAGCAAAAAGAACCAAAGAGGAAGCAACUGAAACAACAUCUGGAUGUAUUUAAAAAUAUACAAUGCCUCCAAAAUCAGGUGUCAUUAAUGAAAAUUCUGAAGAAAUG [DRAIC 705-950]” was tested, and the binding (IKKα-His [1]) was “binds”.

“UUGGAAUAACUUGCAGUGCCAGCAACUUGUUCACAA [A+B DRAIC RNA]” gave a Kd (IKKα-His [2]) of 0.541 nM.

With UUGGAAUAACUUGCAGUGCCAGCAACUUGUUCACAA (structured_RNA) [5'-biotin A+B DRAIC RNA] the binding result (GST-NEMO) was “no binding” and the Kd (MBP-IKKα-6His) was 6.29 ± 1.08 nM.
